Source: patent US20230080534A1, “SEMG2 ANTIBODY AND USE THEREOF” (SHANGHAI BIOTROY BIOTECHNIQUE CO., LTD., priority 2020, published 2023)

Test system: SEMG2(497-509) polypeptide and glycine mutation scanning sequence group
Assay: ELISA epitope mapping with glycine mutation scanning sequence group
Assay type: binding, human
Text: To further precisely define the exact epitopes (specific to the level of single amino acid) to which blocking antibodies MM02, MM05, MM07, MM08, MM13, MM14 bind, corresponding ELISA analysis method was established. […] Anti-mouse or anti-rabbit secondary antibodies were then used to detect the corresponding bound antibodies. […] Meanwhile, the different amino acids in the SEMG2(497-509) sequence had different degrees of influence on the binding of similar blocking antibodies (MM02, MM05, MM07, MM08, MM13, MM14) after substitution by glycine. […] The results precisely define the epitope amino acids associated with MM02 and similar antibodies (i.e., antibodies that block the binding between SEMG2 and CD27), and the contribution of each amino acid to the binding.

- decrease of antibody binding after glycine substitution (substitution of amino acids at positions 501 and 506): more than 70%
- effect of glycine substitution on antibody binding (substitution of amino acids at positions 507 and 509): did not significantly affect
B1: MM02: mouse monoclonal antibody against SEMG2(497-509), mIgG2b kappa, VH SEQ ID NO:35, VL SEQ ID NO:42 (antibody, V domains shown)
VH: QIQLVQSGPEVKKPGETVRISCKASGYTLTTAGIQWVQKMPGKGLKWIGWINTHSGVPEYAEDFKGRFAFFLETSASTAYLQISNLKNEDTATYFCARLGLLGYWGQGTTLTVSS
VL: DILLTQSPAILSVSPGERVSFSCRASQSIGTTIHWYQQRTNGSPRLLIKYASESISGIPSRFSGSGSGTDFTLSINSVESEDIADYYCQQSNSWPWTFGGGTKLEIKRA
modifications: UNSURE (1)..(115) VH; UNSURE (1)..(109) VL
